Patent US10723771B2, “Modified microorganisms expressing SagA as anti-infective agents, probiotics and food components” (priority 2015, dated 2020)
“Also recorded” adds a separate entry of the source.

Legend:
[1] = tested on: S. Typhimurium; test: Liquid-treatment pulsed infection assay: C. elegans treated in liquid wells, then infected with S. Typhimurium, survival scored; type: in vivo; settings: for Inhibition of S. Typhimurium pathogenesis (C. elegans survival): liquid wells 2 hours before infection, protein 10-20 μg/mL, defined fragments 50 μM, digests 100 μL; for Inhibition of S. Typhimurium pathogenesis (survival) in tol-1(nr2033) animals: tol-1(nr2033) C. elegans, liquid treatment
Description: C. elegans infection assays: For each condition, 3 plates of 30 worms each (total 90 worms) were scored, unless otherwise noted. Mean percent survival and standard deviation of the triplicate plates for a representative experiment are shown for extended data figures. Mean percent survival and statistical comparisons by log rank test after Bonferroni correction for multiple comparisons using OASIS software are shown in the figures. E. faecium refers to strain Com15 unless otherwise noted in the figure legends. Worms were handled using a Leica M60 microscope and imaged using a Leica IC80 HD camera.
Liquid-treatment pulsed infection assay: Synchronized young adult worms were transferred to 96-well plate wells containing 32% BHI media, culture supernatant, or live cultures. For protein treatments, 10-20 μg/mL of protein in PBS was included in each well. For treatment with peptidoglycan digests, 100 μL of each digest was added to each well. For treatment with defined peptidoglycan fragments, 50 μM of each fragment in a mixture of PBS and water was included in each well. MDP, GlcNAc, and MurNAc were purchased from Sigma-Aldrich. MurNAc-L-Ala was synthesized as described below in Scheme 51. After 2 hours, worms were washed and transferred to lawns of IR715 grown on BHI plates for 1 day. Then, worms were washed and transferred to lawns of OP50 grown on NGM plates (Day 0). Worms were maintained on OP50-NGM plates and survival was scored.
Treatment of culture supernatants: Proteinase K treatment: Culture supernatant or media was digested with 0.1 mg/mL of proteinase K in the presence of 1 mM CaCl2 for 2 hours at 37° C. Then, 1 mM EGTA was added, and digestions were used in the liquid-treatment pulsed infection assay.
Trichloroacetic acid precipitation: Culture supernatant or media was precipitated with TCA (final concentration of 10%) overnight at 4° C. Precipitated proteins were pelleted and rinsed 2 times in acetone, then air-dried and resuspended in BHI media before use in the liquid-treatment pulsed infection assay. 10-kDa MWCO column filtration: E. faecium culture supernatant or media was filtered through 10-kDa MWCO columns (Vivaspin GE Healthcare), and the flow-thru was used in the liquid-treatment pulsed infection assay.
5-kDa MWCO column filtration of E. coli culture supernatants: E. coli BL21-RIL(DE3) expressing SagA-His or AS-His were induced in BHI media instead of LB as described above. Portions of the culture supernatants were filtered through 5-kDa MWCO columns (Vivaspin GE Healthcare), and the unfiltered supernatants, column concentrate, and column flow-thru were used in the liquid-treatment pulsed infection assay.
Peptidoglycan Digests: 100 μg of E. coli peptidoglycan (Invivogen) was digested with 20 μg lysozyme (Sigma) and 20 μg of SagA-His or AS-His overnight in a mixture of PBS and water at 37° C. Digests were then filtered through 5-kDa MWCO columns (Vivaspin GE Healthcare), and the flow-thru was used in the liquid-treatment pulsed infection assay.

[2] = tested on: S. Typhimurium; test: Colonization and S. Typhimurium infection of mice (weight loss, fecal burden, survival); type: in vivo; settings: MurNAc alone
Experimental: Specific pathogen-free (SPF) mice were gavaged with either a single dose of 20 mg streptomycin or a daily dose of AMNV antibiotic cocktail (4 mg ampicillin, 2 mg metronidazole, 4 mg neomycin, and 2 mg vancomycin) for 7-14 days as indicated in the figure legends. Bacterial cultures were washed and resuspended in sterile PBS at 10^9/mL for E. faecium, E. faecalis, and L. plantarum or at 10^7/mL (SPF) or 10^3/mL (GF) for S. Typhimurium. Mice were colonized by gavage with 100 uL of the indicated bacterial suspension 4 hours before infection (for streptomycin-treated mice) or 2-7 days before infection (for AMNV and GF gnotobiotic mono-colonized mice). Colonization was followed by infection with S. Typhimurium by oral gavage at the doses indicated above and in the figure legends. Weight loss was monitored from just before infection, and mice were euthanized when they reached 80% baseline weight or when they appeared hunched or moribund, whichever occurred first. Death was not used as an end-point. Colony-forming units (CFU) in the feces were determined by plating 5 serial dilutions of feces suspended in sterile PBS on selective agars: Salmonella Shigella Agar (BD 211597) for S. Typhimurium, Enterococcosel Agar (BD 212205) for E. faecium and E. facealis, and MRS Agar with 8 ug/mL chloramphenicol for L. plantarum-vector and -SagA. Resulting quantities were normalized to feces weight.

[3] = ANTS labeling assay of peptidoglycan digests; type: biochemical; settings: purified E. coli peptidoglycan digested with lysozyme and the protein
Experimental: E. coli supernatants were prepared by inoculating cultures 1:50 with an overnight culture of E. coli BL21-RIL(DE3) expressing SagA-His6 or AS-His6. Cultures were grown for 2 hours, then induced with 1 mM IPTG, and grown for an additional 2 hours. Enterococcus supernatants were prepared by growing cultures overnight. Cultures were pelleted, and supernatant was filtered through 10 kDa MWCO columns (Millipore Microcon). For peptidoglycan digests, 100 μg of E. coli peptidoglycan was digested with 20 μg lysozyme and 20 μg of SagA-His or AS-His overnight in a mixture of PBS and water at 37° C. Digests were filtered through 10 kDa MWCO columns. Culture supernatants, peptidoglycan digests, and defined peptidoglycan fragments were dried by speed-vac before ANTS labeling. ANTS labeling was using established techniques. 10 μl of ANTS reaction mix was added to each tube of dried material (1:1 mixture of 0.2 M ANTS (in 3:17 acetic acid:water): 1 M NaCNBH3 (in DMSO)). Reactions were incubated overnight at 37° C. 0.5-3.5 μL of the ANTS labeled mixtures were mixed 1:1 with 40% glycerol and samples were separated by native PAGE on a hand-cast 37-40% Tris-glycine acrylamide gel (19:1 polyacrylamide:bisacrylamide, with a 20% acrylamide stack) at 150 V for ˜3 hours or 80 V for ˜6 hours. Empty lanes adjacent to sample lanes were loaded with samples of ANTS labeled Ala-D-γ-Glu-Lys-D-Ala-D-Ala (Sigma). […]

[4] = tested on: S. Typhimurium; test: Growth of S. Typhimurium in the presence of SagA; type: cell-based; settings: LB media + 10 μg/ml protein
Experimental: (§1) Growth of E. coli and S. Typhimurium in the presence of SagA: LB media was inoculated with overnight cultures 1:100. Protein was added at 10 μg/mL and volumes were normalized across all conditions with PBS. OD600 was measured at given time points. Growth of OG1RF-sagA: BHI media was inoculated with overnight cultures 1:100. Chloramphenicol was added at 10 μg/mL as indicated. OD600 was measured at given time points.

[5] = tested on: E. coli BL21-RIL(DE3); test: Growth (OD600) of E. coli expressing SagA, AS or SagA-SS; type: cell-based; settings: IPTG-induced expression in E. coli BL21-RIL(DE3)
Experimental: Bacterial growth curves: Growth of E. coli expressing SagA, AS, or SagA-SS: Cultures were grown as described for protein purification, except that OD600 was monitored at given time points using a Spectromax M2e spectrophotometer.

[6] = tested on: SPI-1 type III protein secretion in S. Typhimurium; test: Salmonella protein secretion assay; type: cell-based; settings: LB + 10 μg/ml protein
Experimental: Salmonella protein secretion assay: For each condition, 2 mL of LB was inoculated with overnight cultures 1:30. Protein was added to media at 10 μg/mL and volumes were normalized across all conditions with PBS. Cultures were grown for 4 hours, shaking at 37° C., the pelleted at 7000 g for 5 minutes. 1 mL of culture supernatant was precipitated with trichloro acetic acid (TCA) at a final concentration of 10% overnight at 4° C. Precipitated proteins were pelleted at 20,800 g for 30 minutes, rinsed 2 times in acetone, then air-dried. Proteins were then separated by SDS-PAGE and visualized by Coomassie staining.

[7] = tested on: E. coli BL21-RIL(DE3); test: Growth of E. coli in the presence of SagA; type: cell-based; settings: LB media + 10 μg/ml protein
Experimental: as §1

[8] = tested on: S. Typhimurium; test: Worm CFU measurements, S. Typhimurium; type: in vivo, C. elegans; settings: protein-treated infected animals
Experimental: Worm CFU measurements: Protocol for CFU measurements was adapted from previous protocol. Briefly, 5-20 worms were rinsed in drops of S buffer, and allowed to crawl free of bacteria on a sterile plate. These worms were then mechanically lysed in PBS using microtubes and pestles (Kimble-Chase). Serial dilutions of worm homogenate were plated on Salmonella-Shigella agar (BD BBL) or Enterococcosel (BD BBL) agar plates, and plates were incubated at 37° C. overnight.

Molecule: CC(=O)N[C@H]1C(O)O[C@H](CO)[C@@H](O)[C@@H]1O (some centres unmarked) [GlcNAc, N-acetylglucosamine]
- Inhibition of S. Typhimurium pathogenesis (C. elegans survival) [1]: not protective; also recorded: did not inhibit S. Typhimurium pathogenesis

Molecule: CC(=O)N[C@H]1C(O)O[C@H](CO)[C@@H](O)[C@@H]1O[C@H](C)C(=O)N[C@@H](C)C(=O)N[C@H](CCC(=O)O)C(=O)O (stereo partly drawn) [MDP, MurNAc-L-Ala-D-Glu]
- Inhibition of S. Typhimurium pathogenesis (C. elegans survival) [1]: not protective; also recorded: did not inhibit S. Typhimurium pathogenesis

Molecule: CC(=O)N[C@H]1C(O)O[C@H](CO)[C@@H](O)[C@@H]1O[C@H](C)C(=O)O (some centres unmarked) [MurNAc]
- Inhibition of S. Typhimurium pathogenesis (C. elegans survival) [1]: can inhibit S. Typhimurium pathogenesis; also recorded: sufficient to inhibit S. Typhimurium pathogenesis
- Inhibition of S. Typhimurium pathogenesis (survival) in tol-1(nr2033) animals [1]: do not inhibit S. Typhimurium pathogenesis; also recorded: not protective
- Protection of antibiotic-treatment mice from S. Typhimurium pathogenesis [2]: insufficient to protect antibiotic-treatment mice from S. Typhimurium pathogenesis

Molecule: N-acetylmuramic acid-L-alanine [MurNAc-L-Ala]
- Inhibition of S. Typhimurium pathogenesis (C. elegans survival) [1]: can inhibit S. Typhimurium pathogenesis; also recorded: sufficient to inhibit S. Typhimurium pathogenesis
- Inhibition of S. Typhimurium pathogenesis (survival) in tol-1(nr2033) animals [1]: not protective
- Inhibition of S. Typhimurium pathogenesis (survival) in tol-1(nr2033) animals ([1]; listed as MurNAc-Ala): do not inhibit S. Typhimurium pathogenesis

B1: SagA: E. faecium secreted antigen A, NlpC/p60 peptidoglycan hydrolase, SEQ ID NO:1, purified His6-tagged (protein, listed as Enterococcus faecium)
chain: MKKSLISAVMVCSMTLTAVASPIAAAADDFDSQIQQQDQKIADLKNQQADAQSQIDALESQVSEINTQAQDLLAKQDTLRQESAQLVKDIADLQERIEKREDTIQKQAREAQVSNTSSNYIDAVLNADSLADAIGRVQAMTTMVKANNDLMEQQKQDKKAVEDKKAENDAKLKELAENQAALESQKGDLLSKQADLNVLKTSLAAEQATAEDKKADLNRQKAEAEAEQARIREQQRLAEQARQQAAQEKAEKEAREQAEAEAQATQASSTAQSSASEESSAAQSSTTEESSSAAQSSTTEESTTAPESSTTEESTTAPESSTTEESTTVPESSTTEESTTVPESSTTEESTTVPESSTTEESTTVPETSTEESTTPAPTTPSTDQSVDPGNSTGSNATNNTTNTTPTPTPSGSVNGAAIVAEAYKYIGTPYVWGGKDPSGFDCSGFTRYVYLQVTGRDIGGWTVPQESAGTKISVSQAKAGDLLFWGSPGGTYHVAIALGGGQYIHAPQPGESVKVGSVQWFAPDFAVSM
modifications: His6 tag
- Peptidoglycan cleavage product (ANTS visualization) [3]: yielded a unique peptidoglycan cleavage product with similar mobility to MurNAc-L-Ala
- Effect on growth rate of S. Typhimurium in culture [4]: no effect on the growth rate of S. Typhimurium
- Inhibition of S. Typhimurium pathogenesis (C. elegans survival) [1]: inhibits S. Typhimurium pathogenesis
- Inhibition of S. Typhimurium pathogenesis (C. elegans survival) ([1]; listed as SagA-His6): sufficient to inhibit S. Typhimurium pathogenesis
- E. coli cell lysis (culture optical density) on induced expression [5]: decrease in culture optical density
- Effect on secretion of S. Typhimurium type III protein effectors (SPI-1) in culture [6]: does not affect SPI-1 secretion in culture
- Effect on secretion of S. Typhimurium type III protein effectors (SPI-1) in culture ([6]; listed as recombinant SagA): no effect
- Effect on growth rate of E. coli in culture [7]: no effect on the growth rate of E. coli
- S. Typhimurium colonization of C. elegans (imaging and CFU) [8]: does not affect S. Typhimurium colonization of C. elegans
